The values below come from patent CN116472284A.

Test [1] deals with SARS-CoV-2 spike ectodomain, prefusion-stabilised trimer (刺突 S2P) (SARS-CoV-2).
Test [2] shares this target. Put plainly: SPR, captured spike S2P, biphasic dissociation, fast phase kd1.
Test [3] has the same target. Put plainly: SPR, captured spike S2P.
Test [4] shares this target. Put plainly: SPR, captured spike S2P, biphasic dissociation, slow phase kd2.
Test [5] has as its target SARS-CoV-2 spike on live SARS-CoV-2 virus (isolate France/IDF0372/2020) (SARS-CoV-2) (UniProt P0DTC2). Nature of the test: cell-based or functional assay.
Test [6] addresses SARS-CoV-2 spike ectodomain, prefusion-stabilised trimer (刺突 S2P) (SARS-CoV-2). Nature of the test: SPR, captured spike S2P, no measurable dissociation in ten minutes.

“mNb6 (affinity-matured Nb6, I27Y and P105Y) (VHH)” showed an EC50 in test [1] of 0.056 nM.

“Nb6-tri (trivalent Nb6 with two 20 amino acid linkers) (VHH)”: the koff is 0.029 s⁻¹ in test [2] and less than 1e-06 s⁻¹ in test [4]. The substance further had a fold gain in KD against monovalent Nb6 in test [3] of more than 200000 fold. Moreover, the mean IC50, plaque reduction neutralisation of live SARS-CoV-2 on VeroE6 cells in test [5] was 160 pM.

In the case of “mNb6-tri (trivalent mNb6 with 20 amino acid linkers) (VHH)”, in test [3], the Kd is less than 1 pM and the dissociation half-life t1/2 is > 8 天 (days). In test [6], the koff was less than 1e-06 s⁻¹.
